# Reference: the nanobody polyreactivity screen of Harvey et al. (2022)
# Assay: yeast display, Sf9 membrane polyspecificity reagent, FACS + sequencing; frameworks hold sequencing errors
# Method in brief: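 Synthetic nanobody libraries on Saccharomyces cerevisiae BJ5465 were galactose-induced for 36–48 hours, stained 1 hour at 4 °C with 10% biotinylated, detergent-solubilized Sf9 membrane reagent and enriched on streptavidin microbeads. FACS then separated cells into low and high (top ~1%) gates by anti-HA (expression) and streptavidin (reagent binding) fluorescence. Genes were colony-PCR amplified, MiSeq 2 × 250 sequenced and CDR-length filtered. A clone's polyreactivity label is that of its gate of origin.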
sequence,measurement,value
QVQLVESGGGLVQAGGSLRLSCAASGSTFDQNVMGWYRQAPGKERELVATINFSGDSTYYADSVKGRFTISRDNAKNTVYLQMNSLKPEDTAVYYCAVDWGEYIDTSVKRDISYYWGQGTQVTVSS,polyreactivity (PSR sort gate),low polyreactivity
QVQLVESGGCLVQAGGSLRLSCAASGSTFGVNAMGWYRKAPGKERELVADISVRTDSTYYADSVKGRFTISRDNAKNTVYLQMNSLKAEDTAVYDCNAGLVIEYDYWGQGTQVSVSS,polyreactivity (PSR sort gate),low polyreactivity
QVQLVESGGGLVQAGGSLRLSCAASGSIFVGYAMGWYRQAPGKEREMVAAITGSGTRTYYADSVKGRFTISRDNAKNTVYLQMNSLKPEDTAVYYCAAPLSYKNVKYDYWGQGTQVTVSS,polyreactivity (PSR sort gate),low polyreactivity
QVQLVESGGGLVQAGGSLRLSCAASGFTFRSNMGWYRQAPGKEREFVAAITKSGGSTYYADSVKGRFTISRDNAKNTVYLQMNSLKPEDTAVYYCAARARYTTGYRIIYDYWGQGSQVTVSS,polyreactivity (PSR sort gate),high polyreactivity
QVQLVESGGGLVQAGGSLRLSCAASGFTFYKYAMGGYRQEPGKERELVATITISGITNYADSVKGRFTISRDNAKNTVYLQMNSLKPEDTAVYYCATVGPWPGEYDYWGQGTQVTVSS,polyreactivity (PSR sort gate),low polyreactivity
QVQLVESGGGLVQAGGSLRLSCAASGRTFSAYAMGWYRQAPGKERELVADIRRGGGTNYADSVKGRFTISRDNAKNTVYLQMNSLKPEDTAVYYCAAGYLRTYTRRYYWGQGTQVTVSS,polyreactivity (PSR sort gate),high polyreactivity
QVQLVESGGGLVQAGGSLRLTCAASGRTFYWNVMGWYRQAPGKERELVAITTSGGSTYYADAVKGRFTISRDNAKNTVYLQMNSLKPEDTAVYYCAAQWRSYYDQYGYDYWGQGTQVTVSS,polyreactivity (PSR sort gate),low polyreactivity
QVQLVESGGGLVQAGGSLRLRCAASGRIFRYYAMGWYRQAPGKESELVAAITSSGGSTFYADSVKARFTISRDNAKNTVYLQMNSLKPEDTAVYYCAAPRGTRKTYNSWGQGTQVTVSS,polyreactivity (PSR sort gate),high polyreactivity
QVQLVESGGGLVQAGGSLRLSCAASGSIFGGYTMGWYRQPPGKERELVATISRRGGRTYYADSVKGRFTISRDNAKNTVYLQMNSLKPEDTAVYYCAARWGRGLEFDYWGQGTQVTVSS,polyreactivity (PSR sort gate),high polyreactivity
QVQLVESGGGLVKAGGSLRLSCAASGRTFRFYAMGWYRQAPGKEREFVAAISRSVGSTYYADSVKGRFTISRDNAKNTVYLQMNSLKPEDTAVYYCNADYRSRYVEYDYWGQGTQVTVSS,polyreactivity (PSR sort gate),high polyreactivity
QVQLVESGGGLVQAGGSLRLSCAASGFTFTRNAMGRYRQAPGKERELVAAITSSGGRTYYADSVKGRFTISRDNAKNTVYLQMNSLKPVDTAVYYCAVYPRYSLPARDYDYWGQGTQVTVSS,polyreactivity (PSR sort gate),high polyreactivity
QVQLVESGGGLVQAGGSLRLSCAASGLNFVQYVMGWYRQATGKERELVAAITDDGNTYYADSVKGRFTISRDNAKNTVYLQMNSLKPEDTEVYYCNAVLRSYDFWPGYGYWGQGTQVTVSS,polyreactivity (PSR sort gate),low polyreactivity
QVQLVESGGGLVQAGGSLRLSCAASGFTFSAYAIGWYRQAPGKETELVAAITLRGGSTYYADSVKGRFTISRDNAKNTVYLQMNSLNPEDTAVYYCAAERIYVAYDYWGQGTQLTVSS,polyreactivity (PSR sort gate),low polyreactivity
QVQLVESGGGLVQAGGSLRLSCAASGSINYYAMGWYRQAPGKERELVAAITGSGGSTYYADSVKGRFTISRDNAKNTVYLQMNSLITEDTSVYYCAARYGYIYGPYYYWGQGTQVTVST,polyreactivity (PSR sort gate),high polyreactivity
QVQLVESGGGLVQAGGSLRLSCAASGFTFYGYAMGRYRQAPGKERELVAAITFRGDRTYYADSVKGRFTISRDNAKNTVYLQMNSLKPEDTAVYYCAAERPSGWYSDLSLYIGRRGYWGQGTQVTVSS,polyreactivity (PSR sort gate),low polyreactivity
QVQLVETGGGLVQAGGSLRLSCAASGSTFESNAMGWYRQAPGKERELVAAISRGGNTYYADSEKGRFTISRDNAKNTVYLQMNSLKPEDTAVYYCNVDRGNPVPPSEYWGQGTQVTVSS,polyreactivity (PSR sort gate),low polyreactivity
QVQLVESGGGLVQAGGSLRLSCAASGRIFGGNAMGWYRQAAGKERELVAGITGSGGSTYYADSVKGRFTISRDNAKNTVYLQMISLKPEDTAVYYCAAGYTYYYPSSGFDYWGQGTQVTVSS,polyreactivity (PSR sort gate),low polyreactivity
